One block for each molecule: values may come before it.
Tests used:
[1] = molecular target: human skin keratin (human); experiment: quantitative skin binding test, loss relative to untreated skin after 10% strength SDS treatment
[2] = molecular target: human hair keratin (human hair, cut into 5 mm sections) (human); experiment: quantitative hair binding test, anti-polyHis peroxidase conjugate, TMB; protein renatured
[3] = molecular target: human skin keratin (human); experiment: quantitative skin binding test (human keratinocytes in microtiter plates), anti-His antibody, TMB; after 10% strength SDS treatment; conditions: scale: absorption at 405 nm, standardized to the surface
[4] = molecular target: human hair keratin (human hair, cut into 5 mm sections) (human); experiment: quantitative hair binding test, loss relative to untreated hair after 10% strength SDS treatment
[5] = molecular target: human skin keratin (human); experiment: quantitative skin binding test (human keratinocytes in microtiter plates), anti-His antibody, TMB; conditions: scale: absorption at 405 nm, standardized to the surface
[6] = molecular target: human hair keratin (human hair, cut into 5 mm sections) (human); experiment: quantitative hair binding test, anti-polyHis peroxidase conjugate, TMB; protein denatured (not renatured)
[7] = system: hair (human); experiment: Quantitative binding to hair (KBD activity test hair, Example 10); conditions: for measured absorption values at 405 nm (quantitative KBD activity test hair): human hair, detection via His tag with antibody-peroxidase conjugate and TMB; for binding to hair, KBD-B compared with comparison protein: binding test on hair, result in words
Procedure: In this test, hair was firstly incubated with KBD and excess KBD was washed off. An antibody-peroxidase conjugate was then coupled via the His tag of the KBD. Nonbound antibody-peroxidase conjugate was washed off again. The bound anti body-peroxidase conjugate [Monoclonal AntipolyHistidine Peroxidase Conjugate, produced in mouse, lyophilized powder, Sigma] can convert a colorless substrate (TMB) into a colored product, which can be measured photometrically at 405 nm. The intensity of the absorption indicates the amount of bound KBD or comparison protein. The comparison protein chosen was, for example, YaaD from B. subtilis, which likewise had—as is necessary for this test—a His tag for the detection. Instead of the His tag, other specific antibodies conjugated with peroxidase can also be used.
(or at least 2 h at room temperature) with gentle swinging movements. • Centrifugation, removal of the supernatant • 3× washing with PBS […] • Incubation with 1 ml monoclonal mouse anti-tag (His6 or HA) antibodies with peroxidase:conjugate (1:2000 in PBS/0.05% Tween 20) [Monoclonal AntipolyHistidine Peroxidase Conjugate, produced in mouse, lyophilized powder, Sigma] for 2-4 h at room temperature, gentle swinging movement • 3× washing with PBS/0.05% Tween 20 • Addition of peroxidase substrate (1 ml/Eppendorf vessel) • Allow reaction to proceed until blue coloration (about 2 minutes). • Stop the reaction with […] of 2 M H2SO4. • The absorption is measured at 405 nm.
Peroxidase Substrate (Prepare Shortly Beforehand):
0.1 ml TMB solution (42 mM TMB in DMSO) +10 ml of substrate buffer (0.1 M sodium acetate pH 4.9) +14.7 μl H2O2 3% strength BSA=Bovine serum albumin PBS=Phosphate buffered salt solution
Tween 20=polyoxyethylene sorbitan monolaureate, n about 20
TMB=3,5,3′,5′-tetramethylbenzidine

[8] = system: human keratinocytes; experiment: Quantitative binding to skin (Example 15)
Procedure: (§1) In order to investigate the binding strength of the KBD-D (SEQ ID No.:168) to skin and hair compared to the KBD-B (SEQ ID No.:166), a quantitative test was carried out. In this test firstly hair was incubated with KBD-B or KBD-D and excess KBD-D or -D was washed off. An antibody-peroxidase conjugate was then coupled via the His/tag of the KBD-B or -D. Nonbound antibody-peroxidase conjugate was washed off again. The bound antibody-peroxidase conjugate can convert a colorless substrate (TMB) into a colored product, which was measured photometrically at 405 nm. The intensity of the absorption indicates the amount of bound KBD-B or -D.
The test for binding to skin was carried out with human keratinocytes in microtiter plates as follows. • 2× washing with PBS/0.05% Tween 20 • addition of 1 ml of 1% BSA in PBS and incubation for 1 h at room temperature, gentle swinging movements (900 rpm). • removal of the supernatant • addition of 100 μg of KBD in PBS with 0.03% Tween 20; incubation for 2 h at room temperature and gentle swinging movements (900 rpm). • removal of the supernatant • 3× washing with PBS/0.05% Tween 20 • incubation with 1 ml of monoclonal mouse anti-tag-His6 antibodies for 2-4 h at room temperature, gentle swinging movement (900 rpm) • 3× washing with PBS/0.05% Tween 20 • addition of peroxidase substrate (1 ml/Eppendorf vessels composition see below) reaction until a blue coloration (about 90 seconds). • reaction stopped with 100 μl of 2 M H2SO4. • the absorption was measured at 405 nm.
(§2) Peroxidase Substrate (Prepared Shortly Beforehand):
0.1 ml TMB solution (42 mM TMB in DMSO) +10 ml substrate buffer (0.1 M sodium acetate pH 4.9) +14.7 μl H2O2 3% strength

[9] = system: hair (human); experiment: Quantitative binding to hair (Example 15); conditions: relative to untreated hair
Procedure: as §1
In order to characterize the hair binding of the KBD-D compared to the KBD-B, the following binding assay was carried out:
5 mg of hair (human) were cut into sections 5 mm in length and transferred to Eppendorf vessels (protein low-bind). • addition of 1 ml of ethanol for degreasing • centrifugation, removal of ethanol and washing of the hair with H2O • centrifugation, removal of the supernatant • addition of the keratin-binding domains to be tested (coupled to tag—e.g. His6, HA etc.) in 1 ml of PBS/0.05% Tween 20; incubation for 2 h at room temperature with gentle swinging movements • centrifugation, removal of the supernatant • 3× washing with PBS/0.05% Tween 20 • incubation with 1 ml monoclonal mouse anti-tag-(His6 or HA) antibodies with peroxidase conjugate (1:2000 in PBS/0.05% Tween 20) [Monoclonal AntipolyHistidine Peroxidase Conjugate, produced in mouse, lyophilized powder, Sigma] for 2-4 h at room temperature, gentle swinging movement • 3× washing with PBS/0.05% Tween 20 • addition of peroxidase substrate (1 ml/Eppendorf vessel) • allow reaction to proceed until blue coloration (90 seconds). • stop the reaction with 100 μl of 2 M H2SO4.
The absorption was measured at 405 nm
as §2
0.1 ml TMB solution (42 mM TMB in DMSO) +10 ml substrate buffer (0.1 M sodium acetate pH 4.9) +14.7 μl H2O2 3% strength BSA=bovine serum albumin PBS=phosphate buffered salt solution Tween 20=polyoxyethylene sorbitan monolaureate, n about 20 TMB=3,5,3′,5′-tetramethylbenzidine

[10] = system: hair; experiment: Hair-binding activity of KBD-B-panthenol (Example 24a)
Procedure: In order to check whether KBD-B also binds with coupled panthenol to hair, a quantitative binding assay was carried out (see FIG. 6): In this test, hair was firstly incubated with KBD-B-panthenol and nonbound KBD-B-panthenol was washed off. A peroxidase was then coupled via the His tag of the KBD-B. Nonbound peroxidase was washed off again. The bound peroxidase can convert a colorless substrate (TMB) into a colored product which was measured photometrically at 405 nm. The intensity of the absorption indicates the amount of bonded KBD-B-panthenol. As comparison sample, KBD-B without panthenol was chosen.
Only above a mixing ratio of 1:4 does the hair binding activity decrease. Coupling to lysines or cysteines present in the protein structure which is no longer selective could be responsible for this, which could lead to an unfolding and thus poorer hair coupling of the protein.

[11] = molecular target: human hair keratin (human hair, cut into 5 mm sections) (human); experiment: quantitative hair binding test, anti-polyHis peroxidase conjugate, TMB

B1: KBD-B (keratin-binding domain B of human desmoplakin), expressed by the vector pQE30-KBD-B in E. coli (SEQ ID No.: 166) (protein)
chain: MRGSHHHHHHGSACELEPHTGLLLLSVQKRSMSFQGIRQPVTVTELVDSGILRPSTVNELESGQISYDEVGERIKDFLQGSSCIAGIYNETTKQKLGIYEAMKIGLVRPGTALELLEAQAATGFIVDPVSNLRLPVEEAYKRGLVGIEFKEKLLSAERAVTGYNDPETGNIISLFQAMNKELIEKGHGIRLLEAQIATGGIIDPKESHRLPVDIAYKRGYFNEELSEILSDPSDDTKGFFDPNTEENLTYLQLKERCIKDEETGLCLLPLKEKKKQVQTSQKNTLRKRRVVIVDPETNKEMSVQEGVDLQPSLIS
Relative absorption loss after 10% strength SDS treatment in % [1]: 80%
Absorption at 405 nm [2]: 1.59 A405 nm
Absorption at 405 nm [3]: 0.185
Relative absorption loss after 10% strength SDS treatment in % [4]: 86%
Absorption at 405 nm [5]: 0.93
Absorption at 405 nm [6]: 0.254 A405 nm

B4: KBD-B denatured: KBD-B (SEQ ID No.: 166) from inclusion bodies, not renatured (protein, listed as Homo sapiens)
chain: B1 chain
modifications: denatured
measured absorption values at 405 nm (quantitative KBD activity test hair) [7]: A405 nm = 0.254

B5: panthenol-coupled KBD-B: KBD-B (SEQ ID No.: 166) coupled via the maleimidocaproic acid linker with panthenol, Example 22 (conjugate, listed as Homo sapiens)
chain: B1 chain
modifications: maleimidocaproic linker-panthenol conjugate
influence of coupling reaction temperature on hair binding activity ([10]; FIG. 7): no decisive influence
hair binding activity of the coupled protein ([10]; above a KBD-B:panthenol mixing ratio of 1:4 (FIG. 7)): decrease
hair binding activity of the coupled protein ([10]; up to a KBD-B:panthenol mixing ratio of 1:2, compared with KBD-B without panthenol (FIG. 7)): remains virtually constant

Other lines, results leading:

measured absorption values at 405 nm (quantitative KBD activity test hair) [7]: A405 nm = 1.591
B2: KBD-B renatured: KBD-B (SEQ ID No.: 166) renatured by dialysis (protein, listed as Homo sapiens)
chain: B1 chain
modifications: renatured

Relative absorption loss after 10% strength SDS treatment in %, skin ([8]; relative to untreated skin): 80%
Absorption at 405 nm, binding to skin after 10% strength SDS treatment ([8]; values standardized to the surface, after 10% strength SDS treatment): 0.185
Absorption at 405 nm, binding to skin ([8]; values standardized to the surface, no SDS treatment): 0.93
binding to hair, KBD-B compared with comparison protein [7]: considerable superiority
Relative absorption loss after 10% strength SDS treatment in %, hair [9]: 86%
B3: KBD-B: keratin-binding domain B of human desmoplakin with N-terminal His tag, SEQ ID No.: 166, expressed in E. coli (protein, listed as Homo sapiens)
chain: B1 chain

Absorption at 405 nm [11]: 0.088 A405 nm
binding to hair, KBD-B compared with comparison protein [7]: significantly poorer binding
measured absorption values at 405 nm (quantitative KBD activity test hair) [7]: A405 nm = 0.088
B6: Comparison protein YaaD from B. subtilis (His-tagged) (protein, UniProt P37527 1-294, looked up)
chain: MAQTGTERVKRGMAEMQKGGVIMDVINAEQAKIAEEAGAVAVMALERVPADIRAAGGVARMADPTIVEEVMNAVSIPVMAKARIGHIVEARVLEAMGVDYIDESEVLTPADEEFHLNKNEYTVPFVCGCRDLGEATRRIAEGASMLRTKGEPGTGNIVEAVRHMRKVNAQVRKVVAMSEDELMTEAKNLGAPYELLLQIKKDGKLPVVNFAAGGVATPADAALMMQLGADGVFVGSGIFKSDNPAKFAKAIVEATTHFTDYKLIAELSKELGTAMKGIEISNLLPEQRMQERGW
